According to the MegaScale stability set (Tsuboyama et al. 2023):

B1: EHEE_rd2_0196 (parent)
chain: TETRTFDSEEEAKKAQKEAEKQGRTVTITRRDDRWEVRFD

Variants of: B1
Assay: folding stability dG (cDNA display proteolysis); higher = more stable
Details: PBS, room temperature

Variant | folding stability dG [kcal/mol]
TETRTFDSEDEAKKAQKEAEKQGRTVTITRRDDRWEVRFD [E10D] | 2.76
TETRTFDSEFEAKKAQKEAEKQGRTVTITRRDDRWEVRFD [E10F] | 2.69
TETRTFDSEGEAKKAQKEAEKQGRTVTITRRDDRWEVRFD [E10G] | 2.21
TETRTFDSEHEAKKAQKEAEKQGRTVTITRRDDRWEVRFD [E10H] | 2.5
TETRTFDSEIEAKKAQKEAEKQGRTVTITRRDDRWEVRFD [E10I] | 2.58
TETRTFDSEKEAKKAQKEAEKQGRTVTITRRDDRWEVRFD [E10K] | 2.46
TETRTFDSELEAKKAQKEAEKQGRTVTITRRDDRWEVRFD [E10L] | 2.51
TETRTFDSEMEAKKAQKEAEKQGRTVTITRRDDRWEVRFD [E10M] | 2.59
TETRTFDSENEAKKAQKEAEKQGRTVTITRRDDRWEVRFD [E10N] | 2.17
TETRTFDSEPEAKKAQKEAEKQGRTVTITRRDDRWEVRFD [E10P] | 1.88
TETRTFDSEQEAKKAQKEAEKQGRTVTITRRDDRWEVRFD [E10Q] | 2.67
TETRTFDSEREAKKAQKEAEKQGRTVTITRRDDRWEVRFD [E10R] | 2.28
TETRTFDSESEAKKAQKEAEKQGRTVTITRRDDRWEVRFD [E10S] | 2.18
TETRTFDSETEAKKAQKEAEKQGRTVTITRRDDRWEVRFD [E10T] | 2.04
TETRTFDSEVEAKKAQKEAEKQGRTVTITRRDDRWEVRFD [E10V] | 2.58
TETRTFDSEWEAKKAQKEAEKQGRTVTITRRDDRWEVRFD [E10W] | 2.93
TETRTFDSEYEAKKAQKEAEKQGRTVTITRRDDRWEVRFD [E10Y] | 2.71
TETRTFDSEEAAKKAQKEAEKQGRTVTITRRDDRWEVRFD [E11A] | 2.75
TETRTFDSEEDAKKAQKEAEKQGRTVTITRRDDRWEVRFD [E11D] | 2.95
TETRTFDSEEFAKKAQKEAEKQGRTVTITRRDDRWEVRFD [E11F] | 1.47
TETRTFDSEEGAKKAQKEAEKQGRTVTITRRDDRWEVRFD [E11G] | 2.34

Variant | folding stability dG [kcal/mol]
TETRTFDSEEHAKKAQKEAEKQGRTVTITRRDDRWEVRFD [E11H] | 1.61
TETRTFDSEEIAKKAQKEAEKQGRTVTITRRDDRWEVRFD [E11I] | 1.46
TETRTFDSEEKAKKAQKEAEKQGRTVTITRRDDRWEVRFD [E11K] | 2.21
TETRTFDSEELAKKAQKEAEKQGRTVTITRRDDRWEVRFD [E11L] | 2.4
TETRTFDSEEMAKKAQKEAEKQGRTVTITRRDDRWEVRFD [E11M] | 2.47
TETRTFDSEENAKKAQKEAEKQGRTVTITRRDDRWEVRFD [E11N] | 1.96
TETRTFDSEEPAKKAQKEAEKQGRTVTITRRDDRWEVRFD [E11P] | 0.769
TETRTFDSEEQAKKAQKEAEKQGRTVTITRRDDRWEVRFD [E11Q] | 2.54
TETRTFDSEERAKKAQKEAEKQGRTVTITRRDDRWEVRFD [E11R] | 1.47
TETRTFDSEESAKKAQKEAEKQGRTVTITRRDDRWEVRFD [E11S] | 2.18
TETRTFDSEETAKKAQKEAEKQGRTVTITRRDDRWEVRFD [E11T] | 1.75
TETRTFDSEEVAKKAQKEAEKQGRTVTITRRDDRWEVRFD [E11V] | 1.43
TETRTFDSEEWAKKAQKEAEKQGRTVTITRRDDRWEVRFD [E11W] | 1.28
TETRTFDSEEYAKKAQKEAEKQGRTVTITRRDDRWEVRFD [E11Y] | 1.46
TETRTFDSEEEDKKAQKEAEKQGRTVTITRRDDRWEVRFD [A12D] | 0.06
TETRTFDSEEEEKKAQKEAEKQGRTVTITRRDDRWEVRFD [A12E] | 0.203
TETRTFDSEEEFKKAQKEAEKQGRTVTITRRDDRWEVRFD [A12F] | 1.05
TETRTFDSEEEGKKAQKEAEKQGRTVTITRRDDRWEVRFD [A12G] | 0.827
TETRTFDSEEEHKKAQKEAEKQGRTVTITRRDDRWEVRFD [A12H] | 0.139
TETRTFDSEEEIKKAQKEAEKQGRTVTITRRDDRWEVRFD [A12I] | 0.724
TETRTFDSEEEKKKAQKEAEKQGRTVTITRRDDRWEVRFD [A12K] | 0.241

Variant | folding stability dG [kcal/mol]
TETRTFDSEEELKKAQKEAEKQGRTVTITRRDDRWEVRFD [A12L] | 1.49
TETRTFDSEEEMKKAQKEAEKQGRTVTITRRDDRWEVRFD [A12M] | 1.9
TETRTFDSEEENKKAQKEAEKQGRTVTITRRDDRWEVRFD [A12N] | 0.221
TETRTFDSEEEPKKAQKEAEKQGRTVTITRRDDRWEVRFD [A12P] | 0.214
TETRTFDSEEEQKKAQKEAEKQGRTVTITRRDDRWEVRFD [A12Q] | 0.157
TETRTFDSEEERKKAQKEAEKQGRTVTITRRDDRWEVRFD [A12R] | 0.086
TETRTFDSEEESKKAQKEAEKQGRTVTITRRDDRWEVRFD [A12S] | 1.06
TETRTFDSEEETKKAQKEAEKQGRTVTITRRDDRWEVRFD [A12T] | 1.04
TETRTFDSEEEVKKAQKEAEKQGRTVTITRRDDRWEVRFD [A12V] | 1.98
TETRTFDSEEEWKKAQKEAEKQGRTVTITRRDDRWEVRFD [A12W] | 0.806
TETRTFDSEEEYKKAQKEAEKQGRTVTITRRDDRWEVRFD [A12Y] | 1.08
TETRTFDSEEEAAKAQKEAEKQGRTVTITRRDDRWEVRFD [K13A] | 2.54
TETRTFDSEEEACKAQKEAEKQGRTVTITRRDDRWEVRFD [K13C] | 3.06
TETRTFDSEEEADKAQKEAEKQGRTVTITRRDDRWEVRFD [K13D] | 2.09
TETRTFDSEEEAEKAQKEAEKQGRTVTITRRDDRWEVRFD [K13E] | 2.63
TETRTFDSEEEAFKAQKEAEKQGRTVTITRRDDRWEVRFD [K13F] | 3.23
TETRTFDSEEEAGKAQKEAEKQGRTVTITRRDDRWEVRFD [K13G] | 2.02
TETRTFDSEEEAHKAQKEAEKQGRTVTITRRDDRWEVRFD [K13H] | 2.72
TETRTFDSEEEAIKAQKEAEKQGRTVTITRRDDRWEVRFD [K13I] | 3.37
TETRTFDSEEEALKAQKEAEKQGRTVTITRRDDRWEVRFD [K13L] | 3.5
TETRTFDSEEEAMKAQKEAEKQGRTVTITRRDDRWEVRFD [K13M] | 3.18
